{"source": "paper PMC4333415", "about": "“Structural insight into operator dre-sites recognition and effector binding in the GntR/HutC transcription regulator NagR” (Nucleic Acids Research, 2015)", "binders": {"B1": {"name": "26mer palindromic dsDNA (dsDNA)", "DNA 1": "GCTCAGGTGGTCTAGACCACTAGTCT", "DNA 2": "AGACTAGTGGTCTAGACCACCTGAGC"}, "B2": {"name": "19mer palindromic dsDNA (dsDNA)", "DNA 1": "CAGTGGTCTAGACCACTGG", "DNA 2": "CAGTGGTCTAGACCACTGG"}, "B3": {"name": "15mer palindromic dsDNA (shifted motif) (dsDNA)", "DNA 1": "GACCACATGTGGTCT", "DNA 2": "GACCACATGTGGTCT"}, "B4": {"name": "26mer native nagAB dsDNA (dsDNA)", "DNA 1": "GCTCAGCTGGTCTAGATCACTAGTCT", "DNA 2": "AGACTAGTGATCTAGACCAGCTGAGC"}, "B5": {"name": "15mer palindromic dsDNA (dsDNA)", "DNA 1": "GTGGTCTAGACCACT", "DNA 2": "GTGGTCTAGACCACT"}, "B6": {"name": "NagR (full-length, wild-type) from Bacillus subtilis (natural protein, UniProt O34817 1-243, looked up)", "chain": "MNINKQSPIPIYYQIMEQLKTQIKNGELQPDMPLPSEREYAEQFGISRMTVRQALSNLVNEGLLYRLKGRGTFVSKPKMEQALQGLTSFTEDMKSRGMTPGSRLIDYQLIDSTEELAAILGCGHPSSIHKITRVRLANDIPMAIESSHIPFELAGELNESHFQSSIYDHIERYNSIPISRAKQELEPSAATTEEANILGIQKGAPVLLIKRTTYLQNGTAFEHAKSVYRGDRYTFVHYMDRLS", "notes": "NagR (formerly YvoA), GntR/HutC family transcription repressor of Bacillus subtilis, full length; The nagR gene stood in a pET15b vector; also called YvoA; full-length NagR"}, "B7": {"name": "26mer control dsDNA (random design) (dsDNA)", "DNA 1": "AATCATTTATGGCATAGGCAACAAGT", "DNA 2": "ACTTGTTGCCTATGCCATAAATGCTT"}, "B8": {"name": "26mer control dsDNA (derived from nagA gene) (dsDNA)", "DNA 1": "GCAGAGAGTCTTCTTATTAAAGACAT", "DNA 2": "ATGTCTTTAATAAGAAGACTCTCTGC"}}, "key": {"NagR-DBD [1]": {"biological_target": "T1, NagR-DBD (Bacillus subtilis, UniProt O34817 1-75)", "T1 sequence": "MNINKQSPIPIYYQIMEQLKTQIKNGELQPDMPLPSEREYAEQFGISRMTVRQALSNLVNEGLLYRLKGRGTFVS", "assay": "SPR; KD1 of two-step model, steady state; SPR: HBS-EP pH 7.4, 25 C, biotinylated DNA on SA chip; DNA for EMSA/SEC annealed in 20 mM Tris-HCl pH 7.5, 150 mM NaCl; crystal 4WWC: 0.1 M Bis-Tris pH 6.5, 25% PEG 3500, 292 K", "conditions": "protein: recombinant; tags: N-terminal His6 with thrombin site (pET15b); chain copies: 2; label: 5'-biotin on strand 1; blunt"}, "NagR (YvoA) [2]": {"biological_target": "T2, NagR (YvoA) (Bacillus subtilis, UniProt O34817 1-243)", "T2 sequence": "B6 chain", "assay": "SPR; kinetic 1:1 fit; SPR: HBS-EP pH 7.4, 25 C, biotinylated DNA on SA chip; DNA for EMSA/SEC annealed in 20 mM Tris-HCl pH 7.5, 150 mM NaCl; crystal 4WWC: 0.1 M Bis-Tris pH 6.5, 25% PEG 3500, 292 K", "conditions": "protein: recombinant; tags: pET15b template; chain copies: 2; label: 5'-biotin on strand 1; blunt"}, "NagR (YvoA) [3]": {"biological_target": "T2, NagR (YvoA)", "assay": "X-ray crystallography; effector-free; 2.9 A; SPR: HBS-EP pH 7.4, 25 C, biotinylated DNA on SA chip; DNA for EMSA/SEC annealed in 20 mM Tris-HCl pH 7.5, 150 mM NaCl; crystal 4WWC: 0.1 M Bis-Tris pH 6.5, 25% PEG 3500, 292 K", "conditions": "protein: recombinant; tags: pET15b template; chain copies: 2; 3' overhang 1 nt (G) on each strand; self-complementary, 2 copies"}, "NagR-DBD [4]": {"biological_target": "T1, NagR-DBD", "assay": "EMSA; 2 uM DNA; higher oligomers by bridging of fragments; SPR: HBS-EP pH 7.4, 25 C, biotinylated DNA on SA chip; DNA for EMSA/SEC annealed in 20 mM Tris-HCl pH 7.5, 150 mM NaCl; crystal 4WWC: 0.1 M Bis-Tris pH 6.5, 25% PEG 3500, 292 K", "conditions": "protein: recombinant; tags: N-terminal His6 with thrombin site (pET15b); chain copies: 2; 3' overhang 1 nt (T) on each strand; self-complementary, 2 copies"}, "NagR-DBD [5]": {"biological_target": "T1, NagR-DBD", "assay": "SPR; 1:1 steady state; SPR: HBS-EP pH 7.4, 25 C, biotinylated DNA on SA chip; DNA for EMSA/SEC annealed in 20 mM Tris-HCl pH 7.5, 150 mM NaCl; crystal 4WWC: 0.1 M Bis-Tris pH 6.5, 25% PEG 3500, 292 K", "conditions": "protein: recombinant; tags: N-terminal His6 with thrombin site (pET15b); chain copies: 2; label: 5'-biotin on strand 1; blunt"}, "NagR (YvoA) [6]": {"biological_target": "T2, NagR (YvoA)", "assay": "SEC; 3 uM DNA; SPR: HBS-EP pH 7.4, 25 C, biotinylated DNA on SA chip; DNA for EMSA/SEC annealed in 20 mM Tris-HCl pH 7.5, 150 mM NaCl; crystal 4WWC: 0.1 M Bis-Tris pH 6.5, 25% PEG 3500, 292 K", "conditions": "protein: recombinant; tags: pET15b template; chain copies: 2; 3' overhang 1 nt (T) on each strand; self-complementary, 2 copies"}, "NagR-DBD [7]": {"biological_target": "T1, NagR-DBD", "assay": "SEC; 3 uM DNA; SPR: HBS-EP pH 7.4, 25 C, biotinylated DNA on SA chip; DNA for EMSA/SEC annealed in 20 mM Tris-HCl pH 7.5, 150 mM NaCl; crystal 4WWC: 0.1 M Bis-Tris pH 6.5, 25% PEG 3500, 292 K", "conditions": "protein: recombinant; tags: N-terminal His6 with thrombin site (pET15b); chain copies: 2; 3' overhang 1 nt (T) on each strand; self-complementary, 2 copies"}, "[8]": {"biological_target": "the molecule itself", "assay": "crystal structure; full-length NagR co-crystallised with 10 mM GlcN-6-P or GlcNAc-6-P; sitting drop, 292 K; isomorphous crystals, space group R32:H; one homodimer in the asymmetric unit"}, "NagR-DBD [9]": {"biological_target": "T1, NagR-DBD", "assay": "SPR; SPR: HBS-EP pH 7.4, 25 C, biotinylated DNA on SA chip; DNA for EMSA/SEC annealed in 20 mM Tris-HCl pH 7.5, 150 mM NaCl; crystal 4WWC: 0.1 M Bis-Tris pH 6.5, 25% PEG 3500, 292 K", "conditions": "protein: recombinant; tags: N-terminal His6 with thrombin site (pET15b); chain copies: 2; label: 5'-biotin on strand 1; blunt; one T:C mismatch as printed at position 3 of strand 1 (possible misprint)"}, "NagR (YvoA) [10]": {"biological_target": "T2, NagR (YvoA)", "assay": "SPR; 1:1 steady state; SPR: HBS-EP pH 7.4, 25 C, biotinylated DNA on SA chip; DNA for EMSA/SEC annealed in 20 mM Tris-HCl pH 7.5, 150 mM NaCl; crystal 4WWC: 0.1 M Bis-Tris pH 6.5, 25% PEG 3500, 292 K", "conditions": "protein: recombinant, tags: pET15b template, chain copies: 2, label: 5'-biotin on strand 1, blunt"}}}
{"binder": "B1", "values": [{"measurement": "Kd", "setting": "NagR-DBD [1]", "result": "14.5 ± 3.3", "unit": "nM"}, {"measurement": "Kd", "setting": "NagR (YvoA) [2]", "result": "0.0279 ± 0.0067", "unit": "nM"}]}
{"binder": "B2", "values": [{"measurement": "binding result", "setting": "NagR (YvoA) [3]", "result": "binds"}]}
{"binder": "B3", "values": [{"measurement": "binding result", "setting": "NagR-DBD [4]", "result": "binds"}]}
{"binder": "B4", "values": [{"measurement": "Kd", "setting": "NagR (YvoA) [2]", "result": "0.0192 ± 0.0151", "unit": "nM"}, {"measurement": "Kd", "setting": "NagR-DBD [5]", "result": "122 ± 7.6", "unit": "nM"}]}
{"binder": "B5", "values": [{"measurement": "binding result", "setting": "NagR (YvoA) [6]", "result": "binds"}, {"measurement": "binding result", "setting": "NagR-DBD [7]", "result": "binds"}]}
{"binder": "B6", "values": [{"measurement": "stoichiometry N", "setting": "[8]", "result": 2}]}
{"binder": "B7", "values": [{"measurement": "binding result", "setting": "NagR-DBD [9]", "result": "no binding"}, {"measurement": "Kd", "setting": "NagR (YvoA) [10]; one T:C mismatch as printed at position 3 of strand 1 (possible misprint)", "result": "306 ± 6.3", "unit": "nM"}]}
{"binder": "B8", "values": [{"measurement": "Kd", "setting": "NagR (YvoA) [10]", "result": "127 ± 4.2", "unit": "nM"}]}
